{
  "source": "FireProtDB (doi:10.1021/bi00025a018)",
  "proteins": {"B1": {"name": "Ribonuclease HI wild type, P0A7Y4 (protein)", "chain": "MLKQVEIFTDGSCLGNPGPGGYGAILRYRGREKTFSAGYTRTTNNRMELMAAIVALEALKEHCEVILSTDSQYVRQGITQWIHNWKKRGWKTADKKPVKNVDLWQRLDAALGQHQIKWEWVKGHAGHPENERCDELARAAAMNPTLEDTGYQVEV"}},
  "settings": "Escherichia coli (strain K12), Thermal, CD, NaCl 0.1 M, reversible: yes, whole UniProt chain shown",
  "data": [
    {"protein": "B1", "values": [
      {"measurement": "Tm", "setting": "pH 3, glycine-HCl 10 mM", "value": 50.9, "unit": "°C"},
      {"measurement": "unfolding enthalpy (van 't Hoff)", "setting": "pH 3, glycine-HCl 10 mM", "value": 443, "unit": "kJ/mol"},
      {"measurement": "Tm", "setting": "pH 5.5, Sodium acetate 10 mM", "value": 52.5, "unit": "°C"},
      {"measurement": "unfolding enthalpy (van 't Hoff)", "setting": "pH 5.5, Sodium acetate 10 mM", "value": 342, "unit": "kJ/mol"}
    ]}
  ]
}
